Legend:
SARS-CoV-2 NP = SARS-CoV-2 NP (SARS-CoV-2, UniProt P0DTC9 P0DTC9:1-419); assay: ELONA
HIV-1 p24 = HIV-1 p24 (Human immunodeficiency virus 1, UniProt P04591 P04591:133-363); assay: ELONA; antibody-antigen-aptamer sandwich with RPA readout
Ebola NP = Ebola NP (Ebola virus, UniProt P18272 P18272:1-739); assay: ELONA

B1: SARS-CoV-2 NP aptamer (ssDNA)
DNA: ATCCAGAGTGACGCAGCAAACCCAAGCAAACTACCTCTATACCCTTCGACCTTCATCATGGACACGGTGGCTTAGT
B1: binds (SARS-CoV-2 NP).

B2: HIV-1 p24 aptamer (ssDNA)
DNA: AGATACTGCCATTCATTGCATCGAGCACGCGACTGATGAGGATGGTCTAGTAGCTGGGGTCGAGTACTAAGCTATGTGTCGA
B2: binds (HIV-1 p24).

B3: Ebola NP aptamer (ssDNA)
DNA: GATGTGAGTGACGTGGATCGAGCGGATGTGAAGGCTGAAAGTGGCTTTGGGCGGTCGTAAGTGTCACAGAGCATGCAACAAGACC
B3: binds (Ebola NP).

— patent publication US20220243196, “[…] METHOD OF APTAMER AND IMMUNOASSAY USING THE APTAMER” (SB BIOSCIENCE CO., LTD., published 2022)
